The values that follow come from patent publication US20040253646A1, “Pre-mrna splicing screening assay” (priority 2001, published 2004).

Entries after “also recorded” stand apart in the source; their conditions may differ.

Assay [1] addresses T1, PLRG1 (Homo sapiens, UniProt O43660).
T1 construct: using full-length GST-PLRG1 in pull-down experiments with each of the respective CDC5L truncation mutants; made in house; host or cells: E. coli BL21(DE3), vector pGEX-4T1
T1 sequence (O43660 257-396 limits assumed): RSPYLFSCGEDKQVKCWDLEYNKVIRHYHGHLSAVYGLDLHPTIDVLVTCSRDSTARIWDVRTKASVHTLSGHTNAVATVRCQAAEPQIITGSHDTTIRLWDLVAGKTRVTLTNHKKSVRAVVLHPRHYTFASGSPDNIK
Briefly: GST pull-down protein binding assay, CDC5L mutants with GST-PLRG1. The following applies: in vitro translated (FIG. 6A) or bacterially expressed His-tagged (FIG. 6B, 6C) proteins. From the text:
(§1) The in vitro transcription and translation experiments were done with the T7 or SP6 RNA polymerase transcription/translation systems that used rabbit reticulocyte lysate (TNT systems, Promega) and L-[^35S] methionine (Amersham, AG1094) to produce [^35S] labelled proteins according to the manufacturer's recommendations. Aliquots of these reactions were used for protein-protein interaction assays as described below.
(§2) About 0.2 nmole of the appropriate GST-fusion recombinant protein was mixed with an equimolar amount of hexahistidine tagged bacterially expressed protein or 8-10 μl of the in vitro translation reaction above and incubated in binding buffer (250 mM NaCl, 50 mM HEPES pH 7:9, 2% BSA) at room temperature for 15 minutes. The binding reaction was then added to 25 μl of glutathione sepharose beads or antibody bound protein-G sepharose and mixed at 4° C. for 1-2 hrs. The beads were washed 3-4 times in 1 ml of PBS/0.1% Triton X-100 and resuspended in 25 μl 2×SDS PAGE loading dye before heating at 70° C. for 10 minutes or 95° C. for 5 minutes. Bound proteins were separated on a 10% or 12% SDS PAGE gel after which the gel was fixed in 50% methanol/10% acetic acid for 30 minutes. The fixed gel was then soaked in a fluorographic reagent (Amplify, Amersham) for 30 minutes before drying. Protein bands were detected by autoradiography at −80° C. after 4-16 hrs. For antibody probing, the gels containing proteins from the antibody beads were treated as described above in the SDS-PAGE and Western blotting section.
(§3) Point mutations generating stop codons were inserted into the cDNAs at approximately 100 amino acids intervals by PCR using the QuikChange site directed mutagenesis kit (Stratagene) according to the manufacturer's instructions. The cDNAs were sequenced to confirm the presence of the appropriate mutations. Regions of the cDNAs involved in binding and overlapping regions were subcloned into the vectors pGEX-4T1 (Amersham-Pharmacia) or pET-30a (Novagen) for use in E. coli expression and protein-protein interaction assays.

The target in assay [2] is T2, PLRG1 (Homo sapiens, UniProt O43660).
T2 construct: using full-length GST-PLRG1 in pull-down experiments with each of the respective CDC5L truncation mutants; made in house; host or cells: E. coli BL21(DE3), vector pGEX-4T1
T2 sequence (O43660 1-514): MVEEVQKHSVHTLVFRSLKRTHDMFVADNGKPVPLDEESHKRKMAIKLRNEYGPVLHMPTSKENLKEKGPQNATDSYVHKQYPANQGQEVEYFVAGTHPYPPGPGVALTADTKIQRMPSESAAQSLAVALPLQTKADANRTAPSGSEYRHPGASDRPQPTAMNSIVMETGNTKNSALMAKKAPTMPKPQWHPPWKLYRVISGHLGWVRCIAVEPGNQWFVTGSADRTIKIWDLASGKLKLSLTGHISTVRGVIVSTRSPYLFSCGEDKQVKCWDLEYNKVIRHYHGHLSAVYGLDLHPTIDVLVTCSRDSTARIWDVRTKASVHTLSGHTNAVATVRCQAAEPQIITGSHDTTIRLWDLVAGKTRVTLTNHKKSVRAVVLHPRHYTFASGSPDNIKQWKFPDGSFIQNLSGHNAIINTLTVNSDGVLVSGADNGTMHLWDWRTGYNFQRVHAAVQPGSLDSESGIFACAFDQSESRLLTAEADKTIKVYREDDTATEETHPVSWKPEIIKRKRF
The description is as above. The following applies: about 0.2 nmole GST-PLRG1, FIG. 4.
Source text: as §1, §2, §3

B1: ΔCDC5Lh: CDC5L carboxyl terminal mutant protein from region h, amino acids 602-800, expressed in E. coli (protein, UniProt Q99459 602-800, looked up, fragment)
chain: TVGFGTNNSEHITYLEHNPYEKFSKEELKKAQDVLVQEMEVVKQGMSHGELSSEAYNQVWEECYSQVLYLPGQSRYTRANLASKKDRIESLEKRLEINRGHMTTEAKRAAKMEKKMKILLGGYQSRAMGLMKQLNDLWDQIEQAHLELRTFEELKKHEDSAIPRRLECLKEDVQRQQEREKELQHRYADLLLEKETLKS
For the molecule B1, in the assay with PLRG1 [1], the “pull-down of CDC5L mutants by GST-ΔPLRG1f (amino acids 257-396)” value is reported as “will interact”. Also, the “pull-down of in vitro translated CDC5L mutants by full-length GST-PLRG1” value with PLRG1 [2] is listed as “pulled down; also recorded: higher binding efficiency to PLRG1 than ΔCDC5Lg”.
